Experimental data as given in US20030180744A1 (published 2003).

Key:
[1] = molecular target: T1, hKGF receptor present in the PC-3 plasma membrane extracts (UniProt P21802-3 22-822, limits assumed); test: native gel electrophoretic mobility shift of 125I-hKGF by PC-3 plasma membrane extract
T1 construct: A crude detergent extract, not a purified protein; Two complexes (C1, C2) were seen; also called component found in the PC-3 membrane extracts
Procedure: (§1) For electrophoretic mobility shift gels, about 3×10⁷ PC-3 cells were gently spun and washed with PBS and then lysed by mixing with equal volume of lysis buffer containing 40 mM Hepes, pH 7.4, 150 mM NaCl, 20% glycerol, 2% triton X-100, 0.1% sodium azide, 3 mM MgCl₂, 3 mM EGTA, 2 μM aprotinin, 2 μM leupeptin, 2 mM PMSF, and 400 μM sodium orthovanadate. Following 15 min incubation on ice the extract was spun at 11,000 g at 4° C. for 30 min to remove debris and nuclei and the supernatant was aliquoted and stored at −70° C. […] Following a 10 min incubation at room temperature, 6× loading dye was added to achieve 1× concentration, and the samples were loaded onto a 5% or 10% native TBE polyacrylamide gel. The gel was prerun at room temperature at 100 Volts. Following loading, the gel was run at 200 Volts for 5 min and then at 100 Volts for 30-60 min at room temperature. The radioactive bands were then visualized by autoradiography.

[2] = molecular target: T1, hKGF receptor present in the PC-3 …; test: gel shift competition: unlabeled hKGF against 125I-hKGF with PC-3 plasma membrane extract
Procedure: as §1

T1 sequence (P21802 other isoform, or with tags, fused parts or gaps limits assumed): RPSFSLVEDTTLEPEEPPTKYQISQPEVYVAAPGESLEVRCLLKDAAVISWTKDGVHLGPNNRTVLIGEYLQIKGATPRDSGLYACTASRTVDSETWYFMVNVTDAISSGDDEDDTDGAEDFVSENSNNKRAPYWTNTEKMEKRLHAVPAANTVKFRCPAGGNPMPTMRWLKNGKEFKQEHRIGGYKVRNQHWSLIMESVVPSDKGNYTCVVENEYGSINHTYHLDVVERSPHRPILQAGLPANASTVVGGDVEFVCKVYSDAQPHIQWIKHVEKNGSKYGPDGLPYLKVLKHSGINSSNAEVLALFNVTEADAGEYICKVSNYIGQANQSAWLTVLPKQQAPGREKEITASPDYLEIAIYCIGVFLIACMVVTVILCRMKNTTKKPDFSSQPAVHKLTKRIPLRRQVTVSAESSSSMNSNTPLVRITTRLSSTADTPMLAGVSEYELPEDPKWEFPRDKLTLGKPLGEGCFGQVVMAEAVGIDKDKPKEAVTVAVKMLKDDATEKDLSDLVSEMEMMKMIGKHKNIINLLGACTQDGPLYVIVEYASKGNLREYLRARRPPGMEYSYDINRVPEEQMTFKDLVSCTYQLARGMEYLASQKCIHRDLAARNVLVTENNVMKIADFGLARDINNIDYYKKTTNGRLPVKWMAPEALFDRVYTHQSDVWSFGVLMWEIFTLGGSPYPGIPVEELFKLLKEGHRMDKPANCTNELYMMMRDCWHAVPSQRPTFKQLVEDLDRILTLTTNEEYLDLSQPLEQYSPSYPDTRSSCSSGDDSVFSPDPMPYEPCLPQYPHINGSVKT

B1: Recombinant human Keratinocyte Growth Factor (hKGF) (ligand, UniProt P21781 32-194, looked up)
chain: CNDMTPEQMATNVNCSSPERHTRSYDYMEGGDIRVRRLFCRTQWYLRIDKRGKVKGTQEMKNNYNIMEIRTVAVGIVAIKGVESEFYLAMNKEGKLYAKKECNEDCNFKELILENHYNTYASAKWTHNGGEMFVALNQKGIPVRGKKTKKEQKTAHFLPMAIT
notes: also called FGF-7
Kd [1]: ~8 nM | IC50 [2]: 70 nM
